Target: serum IgE from grass pollen allergic patients (171 sera)
Assay: ELISA competition; sera preabsorbed with rPhl p 6, IgE binding to rPhl p 5

- percent of Phl p 5-specific IgE preabsorbed: < 20%
B1: recombinant Phl p 6 (protein)
chain: GKATTEEQKLIEDINASFRAAMATTANVPPADKYKTFEAAFTVSSKRNLADAVSKAPQLVPKLDEVYNAAYNAADHAAPEDKYEAFVLHFSEALHIIAGTPEVHAVKPGA
